These results are taken from article PMC6021487.

This test addresses IL-33 (UniProt O95760). As to the kind of experiment: co-immunoprecipitation with anti-HA, immunoblot. The settings on record: reference: wild type PTRF; sites Y158. In general terms: A western blot detects proteins with antibodies after separation by electrophoresis.

Take “polymerase I and transcript release factor (PTRF, Cavin-1) (from UniProt O54724) PTRF Y158F”: the “binding against the reference” value is listed as “stronger”.
